Legend:
[1] = target: SynZur (SYNW2401), zinc uptake regulator Zur from Synechococcus sp. WH8102 (Synechococcus sp. WH8102); test: native MS; native (near-native) ESI-MS, deconvoluted; WT after EDTA treatment (Zn1SynZur), Cys95Ala as purified
[2] = target: SynZur (SYNW2401), zinc uptake regulator Zur from Synechococcus sp. WH8102 (Synechococcus sp. WH8102); test: crystal structure; X-ray, 2.1 Å, space group P65, four molecules (two dimers) in the asymmetric unit; 100 mM magnesium acetate, 100 mM MES pH 6, 16% PEG 10000, 4 °C
[3] = target: SynZur (SYNW2401), zinc uptake regulator Zur from Synechococcus sp. WH8102 (Synechococcus sp. WH8102); test: dynamic light scattering; 20 uM protein in 50 mM Tris, 25 °C; hydrodynamic diameter compared with values calculated for monomers, dimers and tetramers
[4] = target: SynZur (SYNW2401), zinc uptake regulator Zur from Synechococcus sp. WH8102 (Synechococcus sp. WH8102); test: nondenaturing SDS-PAGE; 10% Tris-glycine gel, 50 mM Tris pH 7.3, 50 mM MOPS, 0.0375% SDS, 4 °C, 100 V
[5] = target: T1, Cys95Ala SynZur C95A (Synechococcus sp. WH8102) (UniProt Q7U3N0); test: EMSA; details: EMSA: 10 mM Tris pH 8, 50 mM KCl, 2 mM MgCl2, 5% glycerol, 0.05 mg/ml BSA, 1 mM DTT, 3 mM spermidine, 5 ng DNA in 10 ul, room temperature 30 min, gel at 4 C …
T1 sequence: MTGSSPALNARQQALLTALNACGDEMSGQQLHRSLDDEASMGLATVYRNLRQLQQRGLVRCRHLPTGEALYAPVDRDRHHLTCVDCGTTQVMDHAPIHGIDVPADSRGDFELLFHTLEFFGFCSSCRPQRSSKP

[6] = target: Cys95Ala SynZur (Synechococcus sp. WH8102); test: native MS; native (near-native) ESI-MS, deconvoluted; WT after EDTA treatment (Zn1SynZur), Cys95Ala as purified
[7] = target: Cys95Ala SynZur (Synechococcus sp. WH8102); test: SEC; analytical SEC, Superdex 200 10/300, 0.5 ml/min; Zn2SynZur 40 uM, Cys95Ala SynZur 30 uM, in 20 mM Tris-HCl pH 8, 300 mM NaCl; methods give 50 mM Tris pH 8.0, 100 mM NaCl

Work on “SynZur (SYNW2401), zinc uptake regulator Zur from Synechococcus sp. WH8102 (natural protein)” yielded a stoichiometry N [1] of 2, a stoichiometry N [2] of 2 and a stoichiometry N [3] of 2. The stoichiometry N [4] was 2.

With “GTTCCATCCACAGCCACAACGCTTGGCTGGGCCGCCTGCGCCGCGACTGAACAACCCGAGACAACGCCCAGGGCGACCGCCAGACCCTTGACCAAAAGCGCAGGACGCGCCATGACACTCGAATGAGAATGATTATCATTTTTACAGTTCAACGGGTTGGCGCAACCCAATCGCGACCGCATGATGAAGTGAACCCACCGCAGCTGTGACAGAACCGCATTCGTCCATCAAGGGGCATCTAGCAGCCAGGAATCTC (double strand) [PznuA promoter (znuC-znuA intergenic fragment)]” the binding [5] was “no binding”.

With Cys95Ala SynZur (natural protein) the stoichiometry N [6] was 2 and the stoichiometry N [7] was 2.

From PMC9337993
